Holding throughout (assay): EMSA
For data set [1], the target named is T1, O6-alkylguanine-DNA alkyltransferase (AGT, MGMT) (human, UniProt P16455 1-207).
The target in data set [2] is T1, O6-alkylguanine-DNA alkyltransferase …. This is another data set of the same source.
The target is the same in data set [3]. This is another data set of the same source.

The values that follow come from PMC2736636.

Read-outs that look alike come from different tables or passages of the source.

T1 sequence (P16455 whole entry): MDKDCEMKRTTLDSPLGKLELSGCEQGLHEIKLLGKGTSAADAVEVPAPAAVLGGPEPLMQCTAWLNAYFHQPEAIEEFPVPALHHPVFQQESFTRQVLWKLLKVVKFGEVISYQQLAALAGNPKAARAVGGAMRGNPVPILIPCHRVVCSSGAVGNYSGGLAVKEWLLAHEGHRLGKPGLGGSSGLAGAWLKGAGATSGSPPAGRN

B1: duplex 16mer (A/B) (dsDNA)
DNA 1: GACTGACTGACTGACT
DNA 2: AGTCAGTCAGTCAGTC
Take B1: the Ka is 16900 M⁻¹ in data set [1], 3.97 ± 0.02 log10 M-1 in data set [2] and 2.58e+06 M⁻¹ in data set [3].
